The results in this text go back to patent publication US20110064742 (published 2011).

Bridge positions count the residues as written; N and C are the ends. Square brackets hold non-standard residues; d marks the D form. Phe(4-Cl) = N[C@@H](Cc1ccc(Cl)cc1)C(=O)O; dPhe(4-Cl) = N[C@H](Cc1ccc(Cl)cc1)C(=O)O; Phe(4-F) = N[C@@H](Cc1ccc(F)cc1)C(=O)O; 2Nal = N[C@@H](Cc1ccc2ccccc2c1)C(=O)O; 3Pal = N[C@@H](Cc1cccnc1)C(=O)O

B1: AC-178,335 (peptide)
chain: Ac-HFIRWF-NH2
B2: PRL-2970 (peptide)
chain: XCYWKTCX
modifications: cyclic disulfide; H-Cpa-cyclo[DCys-Tyr-DTrp-Lys-Thr-Cys]-Nal-NH2
B3: PRL-2915 (peptide)
chain: H-[Phe(4-Cl)]C[3Pal][dW]KIC[2Nal]-NH2
modifications: disulfide 2-7
SMILES: CC[C@H](C)[C@@H]1NC(=O)[C@H](CCCCN)NC(=O)[C@@H](Cc2c[nH]c3ccccc23)NC(=O)[C@H](Cc2cccnc2)NC(=O)[C@@H](NC(=O)[C@@H](N)Cc2ccc(Cl)cc2)CSSC[C@@H](C(=O)N[C@@H](Cc2ccc3ccccc3c2)C(N)=O)NC1=O
B4: BIM 23,458 (peptide)
chain: H-[Phe(4-F)][dC][3Pal][dW]KIC[2Nal]-NH2
modifications: disulfide 2-7
SMILES: CC[C@H](C)[C@@H]1NC(=O)[C@H](CCCCN)NC(=O)[C@@H](Cc2c[nH]c3ccccc23)NC(=O)[C@H](Cc2cccnc2)NC(=O)[C@H](NC(=O)[C@@H](N)Cc2ccc(F)cc2)CSSC[C@@H](C(=O)N[C@@H](Cc2ccc3ccccc3c2)C(N)=O)NC1=O
B5: BIM 23,454 (peptide)
chain: H-[Phe(4-Cl)]C[3Pal]WKVC[2Nal]-NH2
modifications: cysteine pairing not given here
B6: BIM 23,627 (peptide)
chain: H-[dPhe(4-Cl)][dC][3Pal]WKVC[2Nal]-NH2
modifications: disulfide 2-7
SMILES: CC(C)[C@@H]1NC(=O)[C@H](CCCCN)NC(=O)[C@H](Cc2c[nH]c3ccccc23)NC(=O)[C@H](Cc2cccnc2)NC(=O)[C@H](NC(=O)[C@H](N)Cc2ccc(Cl)cc2)CSSC[C@@H](C(=O)N[C@@H](Cc2ccc3ccccc3c2)C(N)=O)NC1=O

SSTR-2 (human), sequence (chain, as listed by the source): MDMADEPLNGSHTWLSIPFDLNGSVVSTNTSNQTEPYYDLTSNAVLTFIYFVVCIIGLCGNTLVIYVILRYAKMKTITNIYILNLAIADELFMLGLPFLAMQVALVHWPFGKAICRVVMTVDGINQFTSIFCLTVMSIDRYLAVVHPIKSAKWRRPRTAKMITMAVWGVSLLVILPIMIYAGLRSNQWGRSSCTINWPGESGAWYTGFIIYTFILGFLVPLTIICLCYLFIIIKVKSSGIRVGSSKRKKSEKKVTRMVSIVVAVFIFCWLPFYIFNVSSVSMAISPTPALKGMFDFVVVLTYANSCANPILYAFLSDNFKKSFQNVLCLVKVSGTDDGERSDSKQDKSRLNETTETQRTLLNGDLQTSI

One experiment addresses SSTR-2 (human).
Turning to B1, the affinity, expressed as Ki, was 158 nM.

Consider B2, for which affinity was put at a Ki of 25.1 nM.

B3: the Ki (commonly a measure of affinity in units of concentration, obtained from inhibition or displacement) is 12.6 nM.

A further experiment concerns the target SSTR-2 (human). The source holds these as a separate data set.
B4: 27.4 nM corresponded to half-maximal inhibition (IC50).

Regarding B5, the concentration for half-maximal inhibition (IC50) (commonly the point on the concentration scale where inhibition reaches its midpoint) was 31.6 nM.

B6: the midpoint of inhibition, the IC50, lay at 6.4 nM.
